The record followed here is US20220202899A1, “COMPOSITION FOR PREVENTION OR TREATMENT OF HAIR LOSS INCLUDING HAPLN1” (HAPLNSCIENCE INC., priority 2019, published 2022).

The subject of one experiment is p-MEK1/2. The experiment is described as follows: p-MEK1/2 in human hair germinal matrix cells stimulated with TGF-β2 (Western blotting). Format: cell-based. Particulars: HAPLN1 25 ng/mL and/or HA 25 μg/mL; TGF-β2 2 ng/mL, 1 hour. On the procedure:
Human hair germinal matrix cells were dispensed into a poly-D-lysine 6-well plate at a concentration of 5.0×10^4 per well and cultured for 24 hours. After 24 hours, the medium was removed and replaced with a new serum-free medium. HAPLN1 was treated with 25 ng/mL and HA with 25 μg/mL, incubated for 23 hours, and then stimulated with TGF-β2 (2 ng/mL) for 1 hour. After collecting cells, a lysis buffer (25 mM Tris-HCl, 1 mM EDTA, 0.1% Triton-X100, phosphatase inhibitor, and protease inhibitor) was added, and all the cells were broken through sonication. p-ERK1/2, p-Smad2, p-MEK1/2, and p-c-Raf in the sample were measured using Western blotting. Optical densities of p-ERK1/2, p-Smad2, p-MEK1/2, and p-c-Raf were compared to those of ERK1/2, Smad2/3, MEK1, and c-Raf using a densitometer. Here, ERK1/2, Smad2/3, MEK1, and c-Raf were used as loading controls.

The next experiment concerns TβRII. The experiment is described as follows: TβRII protein in human hair germinal matrix cells treated with HAPLN1 and/or HA, then TGF-β2 (Western blotting). Format: cell-based. The procedure:
Human hair germinal matrix cells were dispensed into a poly-D-lysine 6-well plate at a concentration of 5.0×10^4 per well and cultured for 24 hours. After 24 hours, the medium was removed and replaced with a new serum-free medium. HAPLN1 was treated with 25 ng/mL, HA was treated with 25 μg/mL, and after 1 hour, TGF-β2 (2 ng/mL) was treated. After 23 hours, cells were collected, a lysis buffer (25 mM Tris-HCl, 1 mM EDTA, 0.1% Triton-X100, phosphatase inhibitor, and protease inhibitor) was added, and all the cells were broken through sonication. TβRI and TβRII in the sample were measured using Western blotting. The optical density of TβRII was compared to that of GAPDH using a densitometer.

B1: hyaluronan and proteoglycan link protein 1 (protein, UniProt P10915 16-354, looked up)
Hyaluronan and proteoglycan …: DHLSDNYTLDHDRAIHIQAENGPHLLVEAEQAKVFSHRGGNVTLPCKFYRDPTAFGSGIHKIRIKWTKLTSDYLKEVDVFVSMGYHKKTYGGYQGRVFLKGGSDSDASLVITDLTLEDYGRYKCEVIEGLEDDTVVVALDLQGVVFPYFPRLGRYNLNFHEAQQACLDQDAVIASFDQLYDAWRGGLDWCNAGWLSDGSVQYPITKPREPCGGQNTVPGVRNYGFWDKDKSRYDVFCFTSNFNGRFYYLIHPTKLTYDEAVQACLNDGAQIAKVGQIFAAWKILGYDRCDAGWLADGSVRYPISRPRRRCSPTEAAVRFVGFPDKKHKLYGVYCFRAYN
notes: extracellular matrix protein found in cartilage; stabilizes aggregates of hyaluronic acid and proteoglycans
B1: in the experiment with p-MEK1/2, the “MEK1/2 activity (p-MEK1/2 compared to MEK1)” value was “increased activities”. Further, the “TβRII protein (optical density compared to GAPDH)” value in the experiment with TβRII (HAPLN1 25 ng/mL or HA 25 μg/mL alone, TGF-β2 2 ng/mL after 1 hour, 23 hours) is given as “significantly increased”. Also, the “TβRII protein, HAPLN1 treated together with HA” value in the experiment with TβRII (HAPLN1 25 ng/mL with HA 25 μg/mL, TGF-β2 2 ng/mL) is given as “further enhanced the increase of TβRII by HA”.
